# Results from article PMC3542282, “P. falciparum cpn20 Is a Bona Fide Co-Chaperonin That Can Replace GroES in E. coli” (PLoS ONE, 2013).
# Tests used:
# [1] = molecular target: GroEL (E. coli) (UniProt P0A6F5)
# [2] = molecular target: P. falciparum cpn20 (P. falciparum); test: AUC; sedimentation equilibrium, 12,000 rpm, 20°C, 20 mM Tris-HCl pH 7.4, 200 mM NaCl, read at 280 nm after 10, 12 and 14 hrs; with sedimentation velocity at 35,000 rpm, 0.5 mg/ml
# [3] = molecular target: T1, GroEL (E. coli, UniProt P0A6F5 1-548)
# [4] = molecular target: T1, GroEL; test: cell-based or functional assay
# [5] = molecular target: the molecule itself; test: AUC; sedimentation equilibrium, 12,000 rpm, 20°C, 20 mM Tris-HCl pH 7.4, 200 mM NaCl, read at 280 nm after 10, 12 and 14 hrs; with sedimentation velocity at 35,000 rpm, 0.5 mg/ml
# GroES, sequence (P0A6F9 whole entry): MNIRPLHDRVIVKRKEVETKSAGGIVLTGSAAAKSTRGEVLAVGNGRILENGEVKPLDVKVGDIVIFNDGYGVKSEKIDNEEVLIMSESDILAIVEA
molecule,measurement,setting,value
P. falciparum cpn20 (natural protein),"protomer ratio of co-chaperonin to GroEL required for half maximal refolding yield of urea-denatured MDH (10 µM GroEL, 0.16 to 20 µM co-chaperonin, 30 minutes) (co-chaperonin to GroEL protomer ratio)",[1],0.125
same,stoichiometry N (subunits in the oligomer),[2],4
GroES (from UniProt P0A6F9 1-97) (natural protein),"protomer ratio of co-chaperonin to GroEL required for half maximal refolding yield of urea-denatured MDH (10 µM GroEL, 0.16 to 20 µM co-chaperonin, 30 minutes) (co-chaperonin to GroEL protomer ratio)",[3],0.125
"A. thaliana cpn20 (natural protein, UniProt O65282 51-253, looked up, cpn20 (20 kDa double-domain co-chaperonin of the chloroplast) from A. thaliana, At5g20720; probably the mature protein without the transit peptide (predicted tetramer 90 kDa); also called At-cpn20; At-Cpn20; source: bacterial expression, purified as previously described [23]) AASVVAPKYTSIKPLGDRVLVKIKEAEEKTLGGILLPSTAQSKPQGGEVVAVGEGRTIGKNKIDITVPTGAQIIYSKYAGTEVEFNDVKHLILKEDDIVGILETEDIKDLKPLNDRVFIKVAEAEEKTAGGLLLTETTKEKPSIGTVIAVGPGSLDEEGKITPLPVSTGSTVLYSKYAGNDFKGKDGSNYIALRASDVMAILS","protomer ratio of co-chaperonin to GroEL required for half maximal refolding yield of urea-denatured MDH (10 µM GroEL, 0.16 to 20 µM co-chaperonin, 30 minutes)",[4],~0.125 co-chaperonin to GroEL protomer ratio
same,stoichiometry N,[5],4 subunits in the oligomer
